# Changes are numbered by the printed parent chain.
# How the values were obtained:
# Test in all cases: disulfide (cystamine) crosslinking, SDS-PAGE; 2.5 mM MnCl2; MST: 25 mM Hepes pH 7.5, 150 mM NaCl, 1 mM DTT, with or without 2 mM GTP and 2 mM MnCl2, 20 nM Cy5-tRNA, temperature not stated; crosslinking: 50 mM Tris pH 7.5, 25 mM NaCl, 25 mM KCl, 30% glycerol, 2.5 mM MnCl2, 0-1 mM DTT, 37 C 2 h then 24 C 14 h
# Conditions in all cases: protein: recombinant; tags: His6-SUMO removed; single strand
# [1] = target: T1, Tb-RtcB R237C (Thermococcus barophilus, UniProt F0LKB8 1-479, R237C)
# T1 sequence: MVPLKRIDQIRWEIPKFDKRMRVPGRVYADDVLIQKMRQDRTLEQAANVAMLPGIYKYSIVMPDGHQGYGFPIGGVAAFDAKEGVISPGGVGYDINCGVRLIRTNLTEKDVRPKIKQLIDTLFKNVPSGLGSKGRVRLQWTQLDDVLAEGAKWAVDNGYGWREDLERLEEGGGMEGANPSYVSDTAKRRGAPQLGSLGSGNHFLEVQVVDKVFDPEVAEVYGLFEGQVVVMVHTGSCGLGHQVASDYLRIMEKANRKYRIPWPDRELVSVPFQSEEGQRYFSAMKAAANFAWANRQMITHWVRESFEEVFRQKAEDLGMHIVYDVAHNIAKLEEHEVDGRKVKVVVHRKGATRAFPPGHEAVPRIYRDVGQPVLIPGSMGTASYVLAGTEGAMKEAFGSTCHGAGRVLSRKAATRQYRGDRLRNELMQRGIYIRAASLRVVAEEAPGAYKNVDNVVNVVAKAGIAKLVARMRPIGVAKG
# [2] = target: T2, Tb-RtcB L130C (Thermococcus barophilus, UniProt F0LKB8 1-479, L130C)
# T2 sequence: T1 sequence with L130C, C237R
# [3] = target: T3, Tb-RtcB S199C (Thermococcus barophilus, UniProt F0LKB8 1-479, S199C)
# T3 sequence: T1 sequence with S199C, C237R
Binder,binding result [1],binding result [2],binding result [3]
"AAACACCGGUGGAGG (ssRNA, cystamine on phosphate between nt 2 and 3; 2'-F at nt 2; 3'-phosphate) [RNA-1]",binds,binds,binds
"AAACACCGGUGGAGG (ssRNA, cystamine on phosphate between nt 1 and 2; 2'-F at nt 1; 3'-phosphate) [RNA-2]",binds,,

# Reference: paper PMC12135372, “Structural and biochemical characterization of the 3′-5′ tRNA splicing ligases”
